Measurements as given in the supplement of paper PMC9942255.

System: Bacillus subtilis DB104 (SP-AmyQ fusion secretion)
Assay: AmyQ secretion efficiency, weighted average sort bin (1 = best secretion, 10 = worst) (bin number (weighted average, 1-10)); higher = lower secretion efficiency
How it was run: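 In this assay, the secretion score is defined as the average bin number weighted by read frequency, normalised to beads per bin, with low-abundance sequences not counted. B. subtilis DB104 cells expressing mature AmyQ behind designed signal peptides (amyE-integrated) were enclosed with fluorescein-starch in ~65 nL alginate beads at about 0.3 cells per bead. Beads grew about 13 h at room temperature, were stained with nile red, and occupied beads went into 10 equally populated green/red fluorescence ratio bins by large-particle flow cytometry, whose amplicons were Illumina-sequenced.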

Sequence	AmyQ secretion efficiency
MAIIIAIIAAVIVIAALITFNVTNASPG	7.21
MMIMQCVICLSLLVFGTTAAHAEET	2.38
MKKCLLFLTTIALILSLSTNAFAANE	1.03
MKKIVSILFMFGGFSQFQPSTVFAADK	4.29
MKKQTTIINNSTIITATTAVVLGSTLFAGAASAQSI	3.18
MKKKQVMLALTAAAGLGLTALHSAPAAKVAPL	6.92
MKQTRSKQSSFMLLAMTGQTALAKDV	7.56
MKTKTLFIFSAILTLSIFAPNETFAQEE	1.78
MKQGKFSVKKKRKRMLTLVVAPKEKAEAASS	5.83
MLMSIALTLCPAIVGSLLFFTAPASAHVS	4.17
MTKKAWFLPLVCVLLISGWLAPAASGSAQTT	2.23
MLKKKWMVGLLAGCLAAGGFSYNAFATEE	3.49
MVKKWLRRRRVMLSVLSTFTYSASAVGV	6.88
MKLAKRVSALTPSTTLAIVAKAKEL	6.85
MGLGKKLSVAVAASFMSLSISLPGVQQAEG	3.24
MKRFSTAYLLLGILCSAAVFLILSAGAPSRALGAEV	3
MLKKIALTLCPAIVGSLLFFTAPASAHEE	2.4
MKKGIIRFRRVSFVLFFALSTGITGVQAAPA	2.36
MRIFKKAVFVIMISFLIATVNVNTAHAEDD	3.86
MKRIRIPMTLALGAALTIAPLSFESAEEN	5.54
MGKWIYVVLVLSIAGIGGFSVHAASS	6.5
MKRIRIPMTLALGAALTIAPLSFASAADE	2.12
MKKLLAAGIIGLLTVSIASPSFTAEK	6.63
MKKKQVMLALTAAAGLGLTALHAKAAPL	2.9
MGMTSNLSLGVASAALGLALVGGGTWAAFN	8.22
MKKQIITATTAVVLGSTLFAGAASSQSI	1.97

Sequence	AmyQ secretion efficiency
MRIFKKAVFVIMISFLIATVNVNTAHAAIG	1.03
MRPVFPLILSAVLFLSCFFGARQTEASLSKR	3.68
MKKAAAVLLSLGLVFKKRRRKKHVAEAKTK	7.39
MKLKKRVSMFKRRRTMCGGLFVTPAKAVKT	6.84
MLCKRRKRKSAIASFPVSAQAKDQ	6.78
MKRRRRPMRLALGAALTIAPLSFASAEEN	5.86
MNLRKILLSSALSLGMLVSAAPVLSTSS	4.72
MTRFILVLSFLSIIVAYPIQTNASPM	5.75
MKKVLMAFIICLSLILSVLAAAKAESV	4.23
MRMLWRSLALCGLALTLAKRRCAQAAEP	6.64
MKFVKRRIIALVTILMLSVTSLFADEEEAKAAEH	2.36
MAIIIAIIAAVIVIAALITFNVSNASPG	7.09
MKRFLIGAGVAAVILRKKKKAKHQTHSQEM	6.98
MRSKKILWISLLFALTLIFTMAFSNMSAQAAGK	2.64
MKSKGSIMACLILFSFTITTFINTETISFFSN	6.76
MRKYTVIASILLSFLSVLSGGHHEVATSKAFPV	3.74
MGLGKKLSVAVAASFMSLSISLPGQQAAEG	3.99
MRPVFPLILSAVLFLSCFFGARQTEHSASKR	6.3
MTGLWRSLALCGLALTLAPCAQAAEP	2.01
MGLGKKLSVAVAASFMSLSISLPGVQAAPR	2.88
MKKLVLCVSILAVILSGVYLTQLS	5.92
MKKTGIRFLLVSFVLFFALSTGITGVQAAPA	1.8
MKKWMASQKKSTQVLLCLMVPQQIQGASS	7.24
MTMLRKIIGWILLLCIIPLFAFTVIGSGKEV	6.78
MRNLTKTSLLLAGLCTAAQMVFVTHTSAEES	3.23
MLCVMMLLFSAIASFPVSYQAKDQ	6.1

Sequence	AmyQ secretion efficiency
MKKRINLIGFLVLVPALIMSGITLIEANKK	7.4
MFNTLFSVCFLAALIMAFTLPNSVYAQKP	4.02
MKRNLTITMFILVLSFLSIIVAYPIQTNASPM	5.49
MFKKHTISLLIIFLLAEAVLAEPIEAHTV	2.51
MRSKKLWISLLFALFTMAFSNMSAQAAGK	2.16
MKVPKTMLLSTAAGLLLSLTATSPPFPPVSAHYV	4.04
MFKKHTKRKRRKFLLASAVLAKPIEAHTV	7.89
MHLIRAAGAVCLAVVLIAGCRFNEDQAEGENT	5.78
MKRRRRRFILVLSFLSIIVAYPIQTNASPM	2.07
MKKIMSGKKGMVLLTIFCFSPQASAAYD	5.2
MKLKKRVSMFLVALTMCGGLFVTPPFVAKAVKT	4.47
MPYLKRVLLLLVTGLFMSLFAVTATVSAQTG	1.43
MLKKKWVGLLAGCLAAGGFSYNAFATEN	4.85
MKKRFFGPIILAFILFAGAIHIPS	5.21
MKKVLMAFIICLSLILSVLAAPPSGAKCESV	3.94
MTKKAWFLPLVCVLLISGWLAPAASRSAQTT	5.9
MNLRKILLSSALSLGMLVSAAPVLETSS	7.05
MKSKWMSGLLLVAVGFSFRKKMVHAGET	7.87
MKKQWIGMLAAAVLLLMVPKVSLADAA	2.86
MKKGIIRFLLVSFVLFFALSTGITGVQRAPA	4.88
MLTKRLLTIYIMLLGLITWFPGAAQAEEK	2.44
MFKKHTISLLIIFLLASAVLAKPIEADEE	3.49
MFKKHTISLLIIFLLASAVLAKPTEAHTV	2.68
MKKKLAAGLTASAIVGTTLVVTPPTAPGGAEAATI	6.5
MGLGKKLSVAVAASFMSLSISLPGGPAVQAAEG	1.61
MLKKKWMVGLLAGCLAAGGFSYNAFCTEN	6.56

Sequence	AmyQ secretion efficiency
MKKWMAGLFLAAAVLLCLMVPQQIQGKKK	4.71
MKKVLMAFIICLSLILSVLAAPPSGAKQESV	2.57
MKKWMITIAMLILAGIALFVFISPLKWHKT	5.74
MTSGTFIIWTIILGALLVCCIAVAYTLTKSQAGASSS	4.88
MAIIIAIIAAVIVIAALITFNVCNASPG	7.28
MKRLFMKASLVLFAVVFVFAVKGAGAKAETH	1.83
MLKKIALTLCPAIVGSLLFFTAPSSAHVS	3.86
MTKRGIQAFAGGIILATAVLAAVFYLTDEDQAAAD	6.91
MKTLRTLCVLMILSGVIFFGLKIDCKDI	5.37
MKKKLAAGLTASAIVGTTLVVTPEEAATI	5.83
MFNRLFRVCFLAALIMAFTLPNSDYAQKP	6.44
MNLRKIILLSSALSLGMLVSAAPVLATSS	2.82
MMIKQCVICLSLLVFGTTAAHARKR	6.42
MKIRKILLSSALSFGMLISAVPALTAGT	4.42
MKKWIYVVLVLSIAGIGGFSSHAASS	6.17
MLLGKILLSSALSLGMLVSAAPVLATSS	6.9
MIKGIIRFLLVSFVLFFALSTGITGVQAAPA	2.2
MKRKSCKLVVSVTLFFSFLTIGPLAHAQNS	1.46
MKWMCSICCAAVLLAGGAAQADDE	6.18
MKKVLMAFIICLSLILSTISSVLAAPPSGAKAESV	2.8
MKNMSCKLVVSVTLFFSFLTIGPLAHYQNS	6.66
MKLWMRKTLVVLFTIVTFGLVSPPAAGMADKP	3.4
MRSKKLWISLLFALTLIFTMAFSNMSPQAAGK	4.28
MMIKQCVICLSLLVFGTTAVHAEET	1.9
MKKIITATTAVVLGSTLFAGAASAQSI	2.35
MKKVMLATALFLPAGANAADL	7.34

Sequence	AmyQ secretion efficiency
MLTKRLLTIYIMLLMLIAWFPGAAQAEEK	1.61
MIAYFGKCLLLVTIMFLGVLFGMQQMNHG	5.05
MRSKKLWISLLFALTLIKKKAFSNMSAQAAGK	8.69
MTKKAWFLPLVCVSGWLAPAASASAQTT	2.07
MSKGIIRFLLVSFVLFFALSTGITGVQAAPA	2.19
MKRIRIPMTLALGAALTIAPLSASAEEN	2.88
MRKKRMIMMVITCVMAASLTLGSLLPAGYASAKED	3.07
MKKKQVMLALTAAAGLGLTALHSAPAGKAAPL	5.58
MKKIGLLFMLCLAALKKRRFPAQQADAAEA	7.17
MKKWMAGLFLAAAVLLCLKRRRKRIQGASS	6.89
MNKKYFVLIVCIIFTSALFPTFSSVTRAQG	1.05
MKKAFLVFLSVVLVTTVFLVKQQESVAQAADD	4.45
MPGKSAVLLSLIMLIAGFLISFSFQM	7.65
MKKAFLVFLSVVLVTTVFLVKQQEAQAKQL	2.1
MKKKLKKGLTASAIVGTTLVVTPAEAATI	5.93
MLKKIALTLCPAIVGSLLFFTGPASAHVS	2.54
MKRKLLSSLAISASAPTASFAAES	7.94
MLKKKWMVGLLAGCLAAGKKKYNAFATEN	7.66
MKIRKIRRRKALSFGMLISAVPALAAGT	5.54
MKRLFMKASLVLFAVVFVFAVKGAKRAKAETH	2.04
MKKRKRRNFKRFIAAFLVLALMISLVPADILAKST	1.87
MHLIRAAGAVCLARFNEDQHQAEGENT	8.19
MKRLLVSLRVWMVFLMNWVTPDRKTGAAAVY	6.91
MRNLTKTSLLLAGLCTAAQMVFVTHVSAEES	3.09
